Measured values reported in patent publication US20150126390A1.

Target: tau-CFP/YFP protein biosensors (UniProt P10636)
Assay: cell-based or functional assay

tau-CFP/YFP protein biosensors, sequence (P10636 561-689, form in doubt): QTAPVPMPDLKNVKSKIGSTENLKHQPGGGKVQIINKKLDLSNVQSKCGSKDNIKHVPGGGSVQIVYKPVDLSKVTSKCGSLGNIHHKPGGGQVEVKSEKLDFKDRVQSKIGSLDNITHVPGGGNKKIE
recombinant full-length (2N,4R) tau fibrils, preparation C (50 µM octadecyl sulfate, 37° C.), sequence (P10636 other isoform, or with tags, fused parts or gaps limits assumed): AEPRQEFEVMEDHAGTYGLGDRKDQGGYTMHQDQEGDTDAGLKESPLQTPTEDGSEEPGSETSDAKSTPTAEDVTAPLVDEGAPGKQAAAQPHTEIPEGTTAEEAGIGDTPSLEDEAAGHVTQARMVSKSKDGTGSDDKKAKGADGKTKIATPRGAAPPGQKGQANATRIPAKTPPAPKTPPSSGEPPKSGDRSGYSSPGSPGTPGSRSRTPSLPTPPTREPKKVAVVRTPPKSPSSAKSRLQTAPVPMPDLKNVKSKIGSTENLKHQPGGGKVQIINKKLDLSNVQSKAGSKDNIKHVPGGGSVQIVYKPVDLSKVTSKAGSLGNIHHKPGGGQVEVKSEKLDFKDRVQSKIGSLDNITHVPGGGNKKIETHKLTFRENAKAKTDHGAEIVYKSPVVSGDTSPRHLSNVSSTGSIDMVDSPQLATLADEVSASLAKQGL
recombinant full-length (2N,4R) tau fibrils, preparation B (8 µM heparin, 22° C.), sequence (P10636 other isoform, or with tags, fused parts or gaps limits assumed): as above
recombinant full-length (2N,4R) tau fibrils, preparation A (8 µM heparin, 37° C.), sequence (P10636 other isoform, or with tags, fused parts or gaps limits assumed): as above

EC50 (pM) of seeding, FRET flow cytometry in biosensor cell line | Plateau (fold increase) of seeding, FRET flow cytometry in biosensor cell line (fold increase) | Substance
4.3 pM | 6.55 | recombinant full-length (2N,4R) tau fibrils, preparation B (8 µM heparin, 22° C.) (from UniProt P10636 2-441)
141 pM | 4.19 | recombinant full-length (2N,4R) tau fibrils, preparation C (50 µM octadecyl sulfate, 37° C.) (from UniProt P10636 2-441)
< 1 pM | 6.67 | recombinant full-length (2N,4R) tau fibrils, preparation A (8 µM heparin, 37° C.) (from UniProt P10636 2-441)
